Reference: IntAct's records for PubMed 23622245

B1: Proteasome inhibitor PI31 subunit (Drosophila melanogaster (Fruit fly)), Q9V637 (parent)
chain: MESGSTAKTGDFFYGWDLLYKTVKADVSKKSDLLIALVHFLLTKHYNFRCVGVGDDKTLPEEEGSELLPDSWNDDDTKYSLRYVHDKMLYLLLGHITEGSLLINLLDINTKKVSNICVEPETLVPEVKGGITTIMPSASEIVERYRRELLDPVFTGNSREVTTQTTNSPRPIGSDPDPLRIGEPRRGGSFIPSAFEPRPFGFPDVGRGDLDPLGRGGHGNLFSFPSRPNMGPGPVPRFDPFNPLNPNRPGQGGINPDHMRPPDWNPDYYM
partner: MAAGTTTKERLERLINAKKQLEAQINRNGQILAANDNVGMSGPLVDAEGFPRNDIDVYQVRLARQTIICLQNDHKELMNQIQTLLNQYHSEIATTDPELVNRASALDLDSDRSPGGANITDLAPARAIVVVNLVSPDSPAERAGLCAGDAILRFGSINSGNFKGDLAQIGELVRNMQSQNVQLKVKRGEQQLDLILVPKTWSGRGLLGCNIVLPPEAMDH
B2: Proteasome inhibitor PI31 subunit (Drosophila melanogaster (Fruit fly)), Q9V637 (parent)
chain: B1 chain
partner: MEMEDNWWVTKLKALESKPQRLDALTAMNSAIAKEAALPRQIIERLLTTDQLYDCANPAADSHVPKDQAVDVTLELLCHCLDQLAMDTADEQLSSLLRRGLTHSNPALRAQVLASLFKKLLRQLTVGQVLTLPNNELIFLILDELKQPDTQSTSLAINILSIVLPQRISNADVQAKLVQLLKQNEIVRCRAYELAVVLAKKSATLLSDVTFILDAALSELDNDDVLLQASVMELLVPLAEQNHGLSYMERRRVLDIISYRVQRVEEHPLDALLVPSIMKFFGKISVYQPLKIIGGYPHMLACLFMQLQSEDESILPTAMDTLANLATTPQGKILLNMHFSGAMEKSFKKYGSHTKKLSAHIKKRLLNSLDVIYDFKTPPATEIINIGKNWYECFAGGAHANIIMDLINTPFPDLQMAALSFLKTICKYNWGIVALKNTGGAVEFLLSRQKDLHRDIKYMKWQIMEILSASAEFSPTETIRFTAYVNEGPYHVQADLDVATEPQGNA
B3: Proteasome inhibitor PI31 subunit (Drosophila melanogaster (Fruit fly)), Q9V637 (parent)
chain: B1 chain
partner: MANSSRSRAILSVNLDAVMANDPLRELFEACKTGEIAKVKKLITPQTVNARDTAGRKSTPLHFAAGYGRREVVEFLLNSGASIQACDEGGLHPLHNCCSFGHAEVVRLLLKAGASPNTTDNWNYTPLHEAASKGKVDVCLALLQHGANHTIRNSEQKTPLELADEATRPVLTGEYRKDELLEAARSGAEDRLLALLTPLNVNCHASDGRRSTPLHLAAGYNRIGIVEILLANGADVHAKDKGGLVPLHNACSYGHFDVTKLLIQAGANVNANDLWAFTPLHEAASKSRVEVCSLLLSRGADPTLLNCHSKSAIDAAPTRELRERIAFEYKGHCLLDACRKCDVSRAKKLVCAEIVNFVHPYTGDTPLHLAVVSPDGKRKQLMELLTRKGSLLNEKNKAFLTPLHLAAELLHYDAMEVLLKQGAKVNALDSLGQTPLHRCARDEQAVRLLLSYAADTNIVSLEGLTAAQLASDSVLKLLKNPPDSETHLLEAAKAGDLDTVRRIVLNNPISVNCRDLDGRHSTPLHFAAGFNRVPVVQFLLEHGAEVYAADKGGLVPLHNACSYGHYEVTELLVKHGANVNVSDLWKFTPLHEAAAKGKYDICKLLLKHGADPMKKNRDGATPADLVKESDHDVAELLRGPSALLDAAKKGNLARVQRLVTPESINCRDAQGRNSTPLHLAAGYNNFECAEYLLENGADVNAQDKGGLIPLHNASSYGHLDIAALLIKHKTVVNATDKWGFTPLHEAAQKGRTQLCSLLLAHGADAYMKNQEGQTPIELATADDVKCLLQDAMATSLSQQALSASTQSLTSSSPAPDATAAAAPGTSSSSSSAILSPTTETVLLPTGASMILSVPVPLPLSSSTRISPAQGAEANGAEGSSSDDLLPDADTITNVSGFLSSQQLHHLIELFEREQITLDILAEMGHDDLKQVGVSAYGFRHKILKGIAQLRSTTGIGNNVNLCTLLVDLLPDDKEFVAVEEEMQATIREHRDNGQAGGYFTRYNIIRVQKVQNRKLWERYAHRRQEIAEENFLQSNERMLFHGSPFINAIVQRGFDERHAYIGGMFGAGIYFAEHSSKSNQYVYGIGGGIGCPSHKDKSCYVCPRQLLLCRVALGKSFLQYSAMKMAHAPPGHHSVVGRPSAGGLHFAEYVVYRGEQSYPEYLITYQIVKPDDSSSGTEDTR
B4: 26S proteasome non-ATPase regulatory subunit 9 (Drosophila melanogaster (Fruit fly)), Q9VFS8 (parent)
chain: B1 partner
partner: B1 chain
B5: 26S proteasome non-ATPase regulatory subunit 5 (Drosophila melanogaster (Fruit fly)), Q9VYG1 (parent)
chain: B2 partner
partner: B1 chain

Variants of: B1
Conditions: with psmd9_drome psmd9, Q9VFS8

Row | Variant | effect of a mutation on the interaction
1 | L210A | disrupting interaction strength
2 | F241A | disrupting interaction strength

Variants of: B2
Conditions: with psmd5_drome psmd5, Q9VYG1

Row | Variant | effect of a mutation on the interaction
3 | F241A | disrupting interaction strength
4 | L210A | disrupting interaction strength

Variants of: B3
Conditions: with tnks_drome Tnks

Row | Variant | effect of a mutation on the interaction
5 | R49A;G54A | disrupting interaction strength
6 | F241A | disrupting interaction strength
7 | L210A | disrupting interaction strength

Variants of: B4
Conditions: with psmf1_drome PI31, Q9V637

Row | Variant | effect of a mutation on the interaction
8 | R187A | disrupting interaction strength
9 | E9A | disrupting interaction strength

Variants of: B5
Conditions: with psmf1_drome PI31, Q9V637

Row | Variant | effect of a mutation on the interaction
10 | E44A | disrupting interaction strength
11 | R263A | disrupting interaction strength
